From patent US20230357348A1 (AstraZeneca / MedImmune, published 2023)
Starred links: 1 amine or outer side, 2 acyl side, 3 side chain; linkers in the order of their positions; H or OH if unused. Non-standard residues stand in square brackets, D forms with d. Groups on a side chain read outwards from the residue. No end group written: not given here. *: point of attachment. C20 diacid = O=C(O)CCCCCCCCCCCCCCCCCCC(=O)*; C18 diacid = O=C(O)CCCCCCCCCCCCCCCCC(=O)*; γGlu = O=C(O)[C@H](CCC(=O)[*:2])N[*:1]; αMeF = C[C@](N)(Cc1ccccc1)C(=O)O; AEEA = NCCOCCOCC(=O)O; Aib = CC(C)(N)C(=O)O

Key:
[1] = target: human GLP-1 receptor (hGLP-1R) (human, UniProt P43220 24-463); experiment: cell-based or functional assay
[2] = target: human glucagon receptor (hGCGR) (human, UniProt P47871 26-477); experiment: cell-based or functional assay
human glucagon receptor (hGCGR), sequence (P47871 26-477): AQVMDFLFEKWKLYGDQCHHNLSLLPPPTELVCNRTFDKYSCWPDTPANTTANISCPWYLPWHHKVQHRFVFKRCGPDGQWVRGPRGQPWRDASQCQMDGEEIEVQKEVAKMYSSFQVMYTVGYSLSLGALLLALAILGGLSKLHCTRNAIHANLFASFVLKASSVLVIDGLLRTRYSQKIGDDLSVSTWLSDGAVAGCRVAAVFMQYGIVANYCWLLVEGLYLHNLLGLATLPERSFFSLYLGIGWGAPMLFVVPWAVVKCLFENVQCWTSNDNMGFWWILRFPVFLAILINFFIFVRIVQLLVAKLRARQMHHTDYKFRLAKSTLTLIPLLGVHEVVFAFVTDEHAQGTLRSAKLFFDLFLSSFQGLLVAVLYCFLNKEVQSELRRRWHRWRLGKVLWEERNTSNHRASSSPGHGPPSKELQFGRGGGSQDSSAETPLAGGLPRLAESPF

Row | Binder | hGLP-1R EC50 (pM) [1] | hGluc-R EC50 (pM) [2]
1 | H[Aib]QGTFTSDVSK[αMeF]LDKK([AEEA-AEEA-γGlu-C20 diacid])RAQDFVRWLLE[Aib]G-NH2 [Peptide 453] | 170 pM | 162 pM
2 | H[Aib]QGTFTSDVSK[αMeF]LDTK([AEEA-AEEA-γGlu-γGlu-C20 diacid])RARDFVQWLLE[Aib]G-OH (N-terminus assumed; SMILES CC(C)C[C@H](NC(=O)[C@H](Cc1c[nH]c2ccccc12)NC(=O)[C@H](CCC(N)=O)NC(=O)[C@@H](NC(=O)[C@H](Cc1ccccc1)NC(=O)[C@H](CC(=O)O)NC(=O)[C@H](CCCNC(=N)N)NC(=O)[C@H](C)NC(=O)[C@H](CCCNC(=N)N)NC(=O)[C@H](CCCCNC(=O)COCCOCCNC(=O)COCCOCCNC(=O)CC[C@H](NC(=O)CC[C@H](NC(=O)CCCCCCCCCCCCCCCCCCC(=O)O)C(=O)O)C(=O)O)NC(=O)[C@@H](NC(=O)[C@H](CC(=O)O)NC(=O)[C@H](CC(C)C)NC(=O)[C@](C)(Cc1ccccc1)NC(=O)[C@H](CCCCN)NC(=O)[C@H](CO)NC(=O)[C@@H](NC(=O)[C@H](CC(=O)O)NC(=O)[C@H](CO)NC(=O)[C@@H](NC(=O)[C@H](Cc1ccccc1)NC(=O)[C@@H](NC(=O)CNC(=O)[C@H](CCC(N)=O)NC(=O)C(C)(C)NC(=O)[C@@H](N)Cc1c[nH]cn1)[C@@H](C)O)[C@@H](C)O)C(C)C)[C@@H](C)O)C(C)C)C(=O)N[C@@H](CC(C)C)C(=O)N[C@@H](CCC(=O)O)C(=O)NC(C)(C)C(=O)NCC(=O)O) [Peptide 449] | 207 pM | 242 pM
3 | H[Aib]QGTFTSDVSK[αMeF]LDKK([AEEA-AEEA-γGlu-C20 diacid])RAQDFVRWLEA[Aib]G-NH2 (N-terminus assumed; SMILES CC(C)C[C@H](NC(=O)[C@H](Cc1c[nH]c2ccccc12)NC(=O)[C@H](CCCNC(=N)N)NC(=O)[C@@H](NC(=O)[C@H](Cc1ccccc1)NC(=O)[C@H](CC(=O)O)NC(=O)[C@H](CCC(N)=O)NC(=O)[C@H](C)NC(=O)[C@H](CCCNC(=N)N)NC(=O)[C@H](CCCCNC(=O)COCCOCCNC(=O)COCCOCCNC(=O)CC[C@H](NC(=O)CCCCCCCCCCCCCCCCCCC(=O)O)C(=O)O)NC(=O)[C@H](CCCCN)NC(=O)[C@H](CC(=O)O)NC(=O)[C@H](CC(C)C)NC(=O)[C@](C)(Cc1ccccc1)NC(=O)[C@H](CCCCN)NC(=O)[C@H](CO)NC(=O)[C@@H](NC(=O)[C@H](CC(=O)O)NC(=O)[C@H](CO)NC(=O)[C@@H](NC(=O)[C@H](Cc1ccccc1)NC(=O)[C@@H](NC(=O)CNC(=O)[C@H](CCC(N)=O)NC(=O)C(C)(C)NC(=O)[C@@H](N)Cc1c[nH]cn1)[C@@H](C)O)[C@@H](C)O)C(C)C)C(C)C)C(=O)N[C@@H](CCC(=O)O)C(=O)N[C@@H](C)C(=O)NC(C)(C)C(=O)NCC(N)=O) [Peptide 454] | 173 pM | 274 pM
4 | H[Aib]QGTFTSDVSK[αMeF]LDKK([AEEA-AEEA-γGlu-C20 diacid])RARDFVLWLL[Aib]E-NH2 (N-terminus assumed; SMILES CC(C)C[C@H](NC(=O)[C@H](Cc1c[nH]c2ccccc12)NC(=O)[C@H](CC(C)C)NC(=O)[C@@H](NC(=O)[C@H](Cc1ccccc1)NC(=O)[C@H](CC(=O)O)NC(=O)[C@H](CCCNC(=N)N)NC(=O)[C@H](C)NC(=O)[C@H](CCCNC(=N)N)NC(=O)[C@H](CCCCNC(=O)COCCOCCNC(=O)COCCOCCNC(=O)CC[C@H](NC(=O)CCCCCCCCCCCCCCCCCCC(=O)O)C(=O)O)NC(=O)[C@H](CCCCN)NC(=O)[C@H](CC(=O)O)NC(=O)[C@H](CC(C)C)NC(=O)[C@](C)(Cc1ccccc1)NC(=O)[C@H](CCCCN)NC(=O)[C@H](CO)NC(=O)[C@@H](NC(=O)[C@H](CC(=O)O)NC(=O)[C@H](CO)NC(=O)[C@@H](NC(=O)[C@H](Cc1ccccc1)NC(=O)[C@@H](NC(=O)CNC(=O)[C@H](CCC(N)=O)NC(=O)C(C)(C)NC(=O)[C@@H](N)Cc1c[nH]cn1)[C@@H](C)O)[C@@H](C)O)C(C)C)C(C)C)C(=O)N[C@@H](CC(C)C)C(=O)NC(C)(C)C(=O)N[C@@H](CCC(=O)O)C(N)=O) [Peptide 451] | 895 pM | 503 pM
5 | H[Aib]QGTFTSDVSK[αMeF]LDKK([AEEA-AEEA-γGlu-C20 diacid])RALDFVRWLL[Aib]E-NH2 (N-terminus assumed; SMILES CC(C)C[C@H](NC(=O)[C@H](C)NC(=O)[C@H](CCCNC(=N)N)NC(=O)[C@H](CCCCNC(=O)COCCOCCNC(=O)COCCOCCNC(=O)CC[C@H](NC(=O)CCCCCCCCCCCCCCCCCCC(=O)O)C(=O)O)NC(=O)[C@H](CCCCN)NC(=O)[C@H](CC(=O)O)NC(=O)[C@H](CC(C)C)NC(=O)[C@](C)(Cc1ccccc1)NC(=O)[C@H](CCCCN)NC(=O)[C@H](CO)NC(=O)[C@@H](NC(=O)[C@H](CC(=O)O)NC(=O)[C@H](CO)NC(=O)[C@@H](NC(=O)[C@H](Cc1ccccc1)NC(=O)[C@@H](NC(=O)CNC(=O)[C@H](CCC(N)=O)NC(=O)C(C)(C)NC(=O)[C@@H](N)Cc1c[nH]cn1)[C@@H](C)O)[C@@H](C)O)C(C)C)C(=O)N[C@@H](CC(=O)O)C(=O)N[C@@H](Cc1ccccc1)C(=O)N[C@H](C(=O)N[C@@H](CCCNC(=N)N)C(=O)N[C@@H](Cc1c[nH]c2ccccc12)C(=O)N[C@@H](CC(C)C)C(=O)N[C@@H](CC(C)C)C(=O)NC(C)(C)C(=O)N[C@@H](CCC(=O)O)C(N)=O)C(C)C) [Peptide 452] | 495 pM | 151 pM
6 | H[Aib]QGTFTSDVSK[αMeF]LDKK([AEEA-AEEA-γGlu-γGlu-C18 diacid])RAQDFVRWLLE[Aib]G-OH (N-terminus assumed; SMILES CC(C)C[C@H](NC(=O)[C@H](Cc1c[nH]c2ccccc12)NC(=O)[C@H](CCCNC(=N)N)NC(=O)[C@@H](NC(=O)[C@H](Cc1ccccc1)NC(=O)[C@H](CC(=O)O)NC(=O)[C@H](CCC(N)=O)NC(=O)[C@H](C)NC(=O)[C@H](CCCNC(=N)N)NC(=O)[C@H](CCCCNC(=O)COCCOCCNC(=O)COCCOCCNC(=O)CC[C@H](NC(=O)CC[C@H](NC(=O)CCCCCCCCCCCCCCCCC(=O)O)C(=O)O)C(=O)O)NC(=O)[C@H](CCCCN)NC(=O)[C@H](CC(=O)O)NC(=O)[C@H](CC(C)C)NC(=O)[C@](C)(Cc1ccccc1)NC(=O)[C@H](CCCCN)NC(=O)[C@H](CO)NC(=O)[C@@H](NC(=O)[C@H](CC(=O)O)NC(=O)[C@H](CO)NC(=O)[C@@H](NC(=O)[C@H](Cc1ccccc1)NC(=O)[C@@H](NC(=O)CNC(=O)[C@H](CCC(N)=O)NC(=O)C(C)(C)NC(=O)[C@@H](N)Cc1c[nH]cn1)[C@@H](C)O)[C@@H](C)O)C(C)C)C(C)C)C(=O)N[C@@H](CC(C)C)C(=O)N[C@@H](CCC(=O)O)C(=O)NC(C)(C)C(=O)NCC(=O)O) [Peptide 450] | 57.3 pM | 57.8 pM

Now from value to binder:

Row | hGLP-1R EC50 (pM) [1] | hGluc-R EC50 (pM) [2] | Binder
7 | 32.7 pM | 36.9 pM | H[Aib]QGTFTSDVSK[αMeF]LDKK([AEEA-AEEA-γGlu-C18 diacid])RAQDFVRWLLA (not fully specified (C-terminus)) [Peptide 459]
8 | 133 pM | 80.3 pM | H[Aib]QGTFTSDVSK[αMeF]LDRK([AEEA-AEEA-γGlu-C20 diacid])RAQDFVRWLL[Aib]E-NH2 (N-terminus assumed; SMILES CC(C)C[C@H](NC(=O)[C@H](Cc1c[nH]c2ccccc12)NC(=O)[C@H](CCCNC(=N)N)NC(=O)[C@@H](NC(=O)[C@H](Cc1ccccc1)NC(=O)[C@H](CC(=O)O)NC(=O)[C@H](CCC(N)=O)NC(=O)[C@H](C)NC(=O)[C@H](CCCNC(=N)N)NC(=O)[C@H](CCCCNC(=O)COCCOCCNC(=O)COCCOCCNC(=O)CC[C@H](NC(=O)CCCCCCCCCCCCCCCCCCC(=O)O)C(=O)O)NC(=O)[C@H](CCCNC(=N)N)NC(=O)[C@H](CC(=O)O)NC(=O)[C@H](CC(C)C)NC(=O)[C@](C)(Cc1ccccc1)NC(=O)[C@H](CCCCN)NC(=O)[C@H](CO)NC(=O)[C@@H](NC(=O)[C@H](CC(=O)O)NC(=O)[C@H](CO)NC(=O)[C@@H](NC(=O)[C@H](Cc1ccccc1)NC(=O)[C@@H](NC(=O)CNC(=O)[C@H](CCC(N)=O)NC(=O)C(C)(C)NC(=O)[C@@H](N)Cc1c[nH]cn1)[C@@H](C)O)[C@@H](C)O)C(C)C)C(C)C)C(=O)N[C@@H](CC(C)C)C(=O)NC(C)(C)C(=O)N[C@@H](CCC(=O)O)C(N)=O) [Peptide 456]
9 | 127 pM | 114 pM | H[Aib]QGTFTSDVSK[αMeF]LDKK([AEEA-AEEA-γGlu-γGlu-C20 diacid])RAQDFVRWLL[Aib]E-NH2 (N-terminus assumed; SMILES CC(C)C[C@H](NC(=O)[C@H](Cc1c[nH]c2ccccc12)NC(=O)[C@H](CCCNC(=N)N)NC(=O)[C@@H](NC(=O)[C@H](Cc1ccccc1)NC(=O)[C@H](CC(=O)O)NC(=O)[C@H](CCC(N)=O)NC(=O)[C@H](C)NC(=O)[C@H](CCCNC(=N)N)NC(=O)[C@H](CCCCNC(=O)COCCOCCNC(=O)COCCOCCNC(=O)CC[C@H](NC(=O)CC[C@H](NC(=O)CCCCCCCCCCCCCCCCCCC(=O)O)C(=O)O)C(=O)O)NC(=O)[C@H](CCCCN)NC(=O)[C@H](CC(=O)O)NC(=O)[C@H](CC(C)C)NC(=O)[C@](C)(Cc1ccccc1)NC(=O)[C@H](CCCCN)NC(=O)[C@H](CO)NC(=O)[C@@H](NC(=O)[C@H](CC(=O)O)NC(=O)[C@H](CO)NC(=O)[C@@H](NC(=O)[C@H](Cc1ccccc1)NC(=O)[C@@H](NC(=O)CNC(=O)[C@H](CCC(N)=O)NC(=O)C(C)(C)NC(=O)[C@@H](N)Cc1c[nH]cn1)[C@@H](C)O)[C@@H](C)O)C(C)C)C(C)C)C(=O)N[C@@H](CC(C)C)C(=O)NC(C)(C)C(=O)N[C@@H](CCC(=O)O)C(N)=O) [Peptide 455]
10 | 117 pM | 66.5 pM | H[Aib]QGTFTSDVSK[αMeF]LDKK([AEEA-AEEA-γGlu-C20 diacid])RAQDFVRWLLAE-NH2 [Peptide 460]
